Values joined by “and” are separate entries in the source; they are usually repeats but may differ in a detail not shown here. Identical values can stand only once.
Key:
Assay in all cases: cell-based or functional assay
[1] = target: FGFR2α-IIIb expressed on transfected BAF3 cells
[2] = target: FGFR1α-IIIb expressed on transfected BAF3 cells
[3] = target: FGFR3α-IIIc expressed on transfected BAF3 cells
[4] = target: FGFR1α-IIIc expressed on transfected BAF3 cells
[5] = target: FGFR2α-IIIc expressed on transfected BAF3 cells
[6] = target: FGFR3α-IIIb expressed on transfected BAF3 cells
[7] = target: FGFR3α-IIIc expressed on transfected BAF3 cells; remark: listed apart in the source

B1: human zFGF5 (FGF homolog polypeptide) (ligand)
chain: EENVDFRIHVENQTRARDDVSRKQLRLYQLYSRTSGKHIQVLGRRISARGEDGDKYAQLLVETDTFGSQVRIKGKETEFYLCMNRKGKLVGKPDGTSKECVFIEKVLENNYTALMSAKYSGWYVGFTKKGRPRKGPKTRENQQDVHFMKRYPKGQPELQKPFKYTTVTKRSRRIRPTHPA
Alamar Blue Units (proliferation of BAF3 cells expressing the receptor) at 1.6 ng/ml zFGF5 [1]: 0.2 Alamar Blue Units
Alamar Blue Units (proliferation of BAF3 cells expressing the receptor) at 3.1 ng/ml zFGF5 [1]: 0.06 Alamar Blue Units
Alamar Blue Units (proliferation of BAF3 cells expressing the receptor) at 6.2 ng/ml zFGF5 [1]: 0 Alamar Blue Units
Alamar Blue Units (proliferation of BAF3 cells expressing the receptor) at 12.5 ng/ml zFGF5 [1]: 0.4 Alamar Blue Units
Alamar Blue Units (proliferation of BAF3 cells expressing the receptor) at 25 ng/ml zFGF5 [1]: 0.2 Alamar Blue Units
Alamar Blue Units (proliferation of BAF3 cells expressing the receptor) at 50 ng/ml zFGF5 [1]: 0.5 Alamar Blue Units
Alamar Blue Units (proliferation of BAF3 cells expressing the receptor) at 100 ng/ml zFGF5 [1]: 1.3 Alamar Blue Units
Alamar Blue Units (proliferation of BAF3 cells expressing the receptor) at 200 ng/ml zFGF5 [1]: 1.3 Alamar Blue Units
Alamar Blue Units (proliferation of BAF3 cells expressing the receptor) at 1.6 ng/ml zFGF5 [2]: 0 Alamar Blue Units
Alamar Blue Units (proliferation of BAF3 cells expressing the receptor) at 3.1 ng/ml zFGF5 [2]: 1.7 Alamar Blue Units
Alamar Blue Units (proliferation of BAF3 cells expressing the receptor) at 6.2 ng/ml zFGF5 [2]: 1.3 Alamar Blue Units
Alamar Blue Units (proliferation of BAF3 cells expressing the receptor) at 12.5 ng/ml zFGF5 [2]: 0 Alamar Blue Units
Alamar Blue Units (proliferation of BAF3 cells expressing the receptor) at 25 ng/ml zFGF5 [2]: 10.9 Alamar Blue Units
Alamar Blue Units (proliferation of BAF3 cells expressing the receptor) at 50 ng/ml zFGF5 [2]: 0 Alamar Blue Units
Alamar Blue Units (proliferation of BAF3 cells expressing the receptor) at 100 ng/ml zFGF5 [2]: 0 Alamar Blue Units
Alamar Blue Units (proliferation of BAF3 cells expressing the receptor) at 200 ng/ml zFGF5 [2]: 0 Alamar Blue Units
Alamar Blue Units (proliferation of BAF3 cells expressing the receptor) at 1.6 ng/ml zFGF5 [3]: 1400 Alamar Blue Units
Alamar Blue Units (proliferation of BAF3 cells expressing the receptor) at 3.1 ng/ml zFGF5 [3]: 2000 Alamar Blue Units
Alamar Blue Units (proliferation of BAF3 cells expressing the receptor) at 6.2 ng/ml zFGF5 [3]: 2580 Alamar Blue Units
Alamar Blue Units (proliferation of BAF3 cells expressing the receptor) at 12.5 ng/ml zFGF5 [3]: 3200 Alamar Blue Units
Alamar Blue Units (proliferation of BAF3 cells expressing the receptor) at 25 ng/ml zFGF5 [3]: 3760 Alamar Blue Units
Alamar Blue Units (proliferation of BAF3 cells expressing the receptor) at 50 ng/ml zFGF5 [3]: 3960 Alamar Blue Units
Alamar Blue Units (proliferation of BAF3 cells expressing the receptor) at 100 ng/ml zFGF5 [3]: 4120 Alamar Blue Units
Alamar Blue Units (proliferation of BAF3 cells expressing the receptor) at 200 ng/ml zFGF5 [3]: 4200 Alamar Blue Units
Alamar Blue Units (proliferation of BAF3 cells expressing the receptor) at 1.6 ng/ml zFGF5 [4]: 2.6 Alamar Blue Units
Alamar Blue Units (proliferation of BAF3 cells expressing the receptor) at 3.1 ng/ml zFGF5 [4]: 4.2 Alamar Blue Units
Alamar Blue Units (proliferation of BAF3 cells expressing the receptor) at 6.2 ng/ml zFGF5 [4]: 14.2 Alamar Blue Units
Alamar Blue Units (proliferation of BAF3 cells expressing the receptor) at 12.5 ng/ml zFGF5 [4]: 29.9 Alamar Blue Units
Alamar Blue Units (proliferation of BAF3 cells expressing the receptor) at 25 ng/ml zFGF5 [4]: 86 Alamar Blue Units
Alamar Blue Units (proliferation of BAF3 cells expressing the receptor) at 50 ng/ml zFGF5 [4]: 224 Alamar Blue Units
Alamar Blue Units (proliferation of BAF3 cells expressing the receptor) at 100 ng/ml zFGF5 [4]: 488 Alamar Blue Units
Alamar Blue Units (proliferation of BAF3 cells expressing the receptor) at 200 ng/ml zFGF5 [4]: 912 Alamar Blue Units
Alamar Blue Units (proliferation of BAF3 cells expressing the receptor) at 1.6 ng/ml zFGF5 [5]: 241 Alamar Blue Units
Alamar Blue Units (proliferation of BAF3 cells expressing the receptor) at 3.1 ng/ml zFGF5 [5]: 480 Alamar Blue Units
Alamar Blue Units (proliferation of BAF3 cells expressing the receptor) at 6.2 ng/ml zFGF5 [5]: 715 Alamar Blue Units
Alamar Blue Units (proliferation of BAF3 cells expressing the receptor) at 12.5 ng/ml zFGF5 [5]: 977 Alamar Blue Units
Alamar Blue Units (proliferation of BAF3 cells expressing the receptor) at 25 ng/ml zFGF5 [5]: 1310 Alamar Blue Units
Alamar Blue Units (proliferation of BAF3 cells expressing the receptor) at 50 ng/ml zFGF5 [5]: 1520 Alamar Blue Units
Alamar Blue Units (proliferation of BAF3 cells expressing the receptor) at 100 ng/ml zFGF5 [5]: 1720 Alamar Blue Units
Alamar Blue Units (proliferation of BAF3 cells expressing the receptor) at 200 ng/ml zFGF5 [5]: 1790 Alamar Blue Units
Alamar Blue Units (proliferation of BAF3 cells expressing the receptor) at 1.6 ng/ml zFGF5 [6]: 0 Alamar Blue Units
Alamar Blue Units (proliferation of BAF3 cells expressing the receptor) at 3.1 ng/ml zFGF5 [6]: 0 Alamar Blue Units
Alamar Blue Units (proliferation of BAF3 cells expressing the receptor) at 6.2 ng/ml zFGF5 [6]: 0 Alamar Blue Units
Alamar Blue Units (proliferation of BAF3 cells expressing the receptor) at 12.5 ng/ml zFGF5 [6]: 0 Alamar Blue Units
Alamar Blue Units (proliferation of BAF3 cells expressing the receptor) at 25 ng/ml zFGF5 [6]: 1.4 Alamar Blue Units
Alamar Blue Units (proliferation of BAF3 cells expressing the receptor) at 50 ng/ml zFGF5 [6]: 19 Alamar Blue Units
Alamar Blue Units (proliferation of BAF3 cells expressing the receptor) at 100 ng/ml zFGF5 [6]: 189 Alamar Blue Units
Alamar Blue Units (proliferation of BAF3 cells expressing the receptor) at 200 ng/ml zFGF5 [6]: 472 Alamar Blue Units
EC50 of the cell proliferative response [7]: ~1 ng/mL and ~2 ng/mL
